Test results from patent publication US12099068B2, “Biomarkers for graft-versus-host disease” (Incyte Corporation, priority 2018, dated 2024).

B1: C1QTNF1 (protein, UniProt Q9BXJ1 26-281, looked up)
Complement C1q tumor necrosis …: RVPHVQGEQQEWEGTEELPSPPDHAERAEEQHEKYRPSQDQGLPASRCLRCCDPGTSMYPATAVPQINITILKGEKGDRGDRGLQGKYGKTGSAGARGHTGPKGQKGSMGAPGERCKSHYAAFSVGRKKPMHSNHYYQTVIFDTEFVNLYDHFNMFTGKFYCYVPGLYFFSLNVHTWNQKETYLHIMKNEEEVVILFAQVGDRSIMQSQSLMLELREQDQVWVRLYKGERENAIFSEELDTYITFSGYLVKHATEP
B2: PCDH17 (protein, UniProt O14917 18-1159, looked up)
Protocadherin-17: LKNLNYSVPEEQGAGTVIGNIGRDARLQPGLPPAERGGGGRSKSGSYRVLENSAPHLLDVDADSGLLYTKQRIDRESLCRHNAKCQLSLEVFANDKEICMIKVEIQDINDNAPSFSSDQIEMDISENAAPGTRFPLTSAHDPDAGENGLRTYLLTRDDHGLFGLDVKSRGDGTKFPELVIQKALDREQQNHHTLVLTALDGGEPPRSATVQINVKVIDSNDNSPVFEAPSYLVELPENAPLGTVVIDLNATDADEGPNGEVLYSFSSYVPDRVRELFSIDPKTGLIRVKGNLDYEENGMLEIDVQARDLGPNPIPAHCKVTVKLIDRNDNAPSIGFVSVRQGALSEAAPPGTVIALVRVTDRDSGKNGQLQCRVLGGGGTGGGGGLGGPGGSVPFKLEENYDNFYTVVTDRPLDRETQDEYNVTIVARDGGSPPLNSTKSFAIKILDENDNPPRFTKGLYVLQVHENNIPGEYLGSVLAQDPDLGQNGTVSYSILPSHIGDVSIYTYVSVNPTNGAIYALRSFNFEQTKAFEFKVLAKDSGAPAHLESNATVRVTVLDVNDNAPVIVLPTLQNDTAELQVPRNAGLGYLVSTVRALDSDFGESGRLTYEIVDGNDDHLFEIDPSSGEIRTLHPFWEDVTPVVELVVKVTDHGKPTLSAVAKLIIRSVSGSLPEGVPRVNGEQHHWDMSLPLIVTLSTISIILLAAMITIAVKCKRENKEIRTYNCRIAEYSHPQLGGGKGKKKKINKNDIMLVQSEVEERNAMNVMNVVSSPSLATSPMYFDYQTRLPLSSPRSEVMYLKPASNNLTVPQGHAGCHTSFTGQGTNASETPATRMSIIQTDNFPAEPNYMGSRQQFVQSSSTFKDPERASLRDSGHGDSDQADSDQDTNKGSCCDMSVREALKMKTTSTKSQPLEQEPEECVNCTDECRVLGHSDRCWMPQFPAANQAENADYRTNLFVPTVEANVETETYETVNPTGKKTFCTFGKDKREHTILIANVKPYLKAKRALSPLLQEVPSASSSPTKACIEPCTSTKGSLDGCEAKPGALAEASSQYLPTDSQYLSPSKQPRDPPFMASDQMARVFADVHSRASRDSSEMGAVLEQLDHPNRDLGRESVDAEEVVREIDKLLQDCRGNDPVAVRK
B3: CLM-6 (protein, UniProt Q08708 21-224, looked up)
CMRF35-like molecule 6: GYFPLSHPMTVAGPVGGSLSVQCRYEKEHRTLNKFWCRPPQILRCDKIVETKGSAGKRNGRVSIRDSPANLSFTVTLENLTEEDAGTYWCGVDTPWLRDFHDPIVEVEVSVFPAGTTTASSPQSSMGTSGPPTKLPVHTWPSVTRKDSPEPSPHPGSLFSNVRFLLLVLLELPLLLSMLGAVLWVNRPQRSSRSRQNWPKGENQ
B4: CKAP4 (protein, UniProt Q07065 1-602, looked up)
Cytoskeleton-associated …: MPSAKQRGSKGGHGAASPSEKGAHPSGGADDVAKKPPPAPQQPPPPPAPHPQQHPQQHPQNQAHGKGGHRGGGGGGGKSSSSSSASAAAAAAAASSSASCSRRLGRALNFLFYLALVAAAAFSGWCVHHVLEEVQQVRRSHQDFSRQREELGQGLQGVEQKVQSLQATFGTFESILRSSQHKQDLTEKAVKQGESEVSRISEVLQKLQNEILKDLSDGIHVVKDARERDFTSLENTVEERLTELTKSINDNIAIFTEVQKRSQKEINDMKAKVASLEESEGNKQDLKALKEAVKEIQTSAKSREWDMEALRSTLQTMESDIYTEVRELVSLKQEQQAFKEAADTERLALQALTEKLLRSEESVSRLPEEIRRLEEELRQLKSDSHGPKEDGGFRHSEAFEALQQKSQGLDSRLQHVEDGVLSMQVASARQTESLESLLSKSQEHEQRLAALQGRLEGLGSSEADQDGLASTVRSLGETQLVLYGDVEELKRSVGELPSTVESLQKVQEQVHTLLSQDQAQAARLPPQDFLDRLSSLDNLKASVSQVEADLKMLRTAVDSLVAYSVKIETNENNLESAKGLLDDLRNDLDRLFVKVEKIHEKV

Tested on: plasma proteins
Test: Plasma proteins modulated between baseline and day 28 in responders (CR, VGPR, PR; n = 19), Example 6 (Table 13)
Format: in vivo, human
Conditions: plasma protein (OLINK NPX); responders (CR, VGPR, PR; n = 19); itacitinib 200 mg or 300 mg QD with corticosteroids; day 28 vs baseline
Method in brief: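 Longitudinal comparison, day 28 versus baseline, with steroid-naive (N=10) and steroid-refractory (N=18) patients combined. Proteins measured by OLINK proximity extension, log2 normalized protein expression. Differences tested by t tests, ANOVA, Pearson correlation, P<0.05 significant.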

Molecule | Fold Change, Decreased Expression from Baseline to Day 28
B1 | −1.2979
B2 | −1.232
B3 | −1.1356
B4 | −1.1904
